In US20040058406A1:

Legend:
[1] = molecular target: phosphorylated product of Flourescein-QSPKKG-CONH2 (after overnight incubation with ATP and CDK2); assay: fluorescence polarization in a cuvette, 50 mM TAPS pH 9.0, poly-D-lysine added in aliquots; about 38 mP without polylysine
[2] = molecular target: Flourescein-QSPKKG-CONH2 (neutrally charged phosphorylatable CDK2 substrate); assay: as above
[3] = molecular target: phosphorylated product of Flourescein-QSPKKG-CONH2 (after overnight incubation with ATP and CDK2); assay: fluorescence polarization in a cuvette, 50 mM TAPS pH 9.0, large excess of poly-D-lysine; about 38 mP without polylysine

poly-D-Lysine
fluorescence polarization [1]: 72 mP
fluorescence polarization [2]: 42 mP
fluorescence polarization [3]: 100 mP
